In publication PMC11800091 (iScience, 2025):

B1: 3E3 nanobody (VHH)
VHH: EVQLVESGGGLVQPGGSLRLSCAASQFTLESYAIGWFRQAPGKDSEGVACISSSTYYADSVKGRFTISRDNAKNTVYLQMESLKPEDTAVYHCATSGAGSYCTLRAFGSWGQGTQVTVSS
B2: LPETG sortag-3E3 nanobody (VHH)
VHH: B1 VHH

How the values were obtained:
[1] = molecular target: human immunodeficiency virus type 1 JR-CSF Fc-gp120 protein (HIV-1 JR-CSF) (UniProt P20871); assay: BLI
[2] = molecular target: human immunodeficiency virus type 1 JR-CSF Fc-gp120 protein (HIV-1 JR-CSF, UniProt P20871); assay: BLI

Kd [1]	Kd [2]	Molecule
1.92 nM		LPETG sortag-J3 nanobody (VHH)
	3.33 nM	B1
	2.51 nM	B2
